This is an account of results in the RNAGym collection of RNA variant scans (doi:10.7554/elife.80360).

To fix the notation:
B1: CPEB3 Ribozyme (parent)
chain: GGGGGCCACAGCAGAAGCGUUCACGUCGCGGCCCCUGUCAGAUUCUGGUGAAUCUGCGAAUUCUGCUGU

The variants in the data set derive from B1. Nature of the data set: self-cleavage, relative activity (ratio to wild type); higher = more cleavage; co-transcriptional.
Turning to GGGGGCAACAGCAGAAGCGUUCACGUCGCGGCCCCUGACAGAUUCUGGUGAAUCUGCGAAUUCUGCUGU, the self-cleavage came out at 0.191.

Consider GGGGGCAACAGCAGAAGCGUUCACGUCGCGGCCCCUGCCAGAUUCUGGUGAAUCUGCGAAUUCUGCUGU, for which the self-cleavage came to 0.221.

For GGGGGCGACGGCAGAAGCGUUCACGUCGCGGCCCCUGUCAGAUUCUGGUGAAUCUGCGAAUUCUGCUGU, the self-cleavage came to 0.671.

Take GGGGGCGACUGCAGAAGCGUUCACGUCGCGGCCCCUGUCAGAUUCUGGUGAAUCUGCGAAUUCUGCUGU: the self-cleavage was found to be 0.683.

As to GGGGGCGACCGCAGAAGCGUUCACGUCGCGGCCCCUGUCAGAUUCUGGUGAAUCUGCGAAUUCUGCUGU, the self-cleavage was found to be 0.703.

As for GGGGGCAACAGCAGAAGCGUUCACGUCGCGGCCCCUGUCAGAUUCUGGUGAAUCUGCGAAUUCUGCUGG, the self-cleavage worked out at 0.897.

Consider GGGGGCAACAGCAGAAGCGUUCACGUCGCGGCCCCUGUCAGAUUCUGGUGAAUCUGCGAAUUCUGCUGA, for which the self-cleavage turned out to be 0.875.

In the case of GGGGGCAACAGCAGAAGCGUUCACGUCGCGGCCCCUGUCAGAUUCUGGUGAAGCUGCGAAUUCUGCUGU, the self-cleavage turned out to be 0.177.

As for GGGGGCGACAGCGGAAGCGUUCACGUCGCGGCCCCUGUCAGAUUCUGGUGAAUCUGCGAAUUCUGCUGU, the self-cleavage was found to be 0.238.

Take GGGGGCGACAGCUGAAGCGUUCACGUCGCGGCCCCUGUCAGAUUCUGGUGAAUCUGCGAAUUCUGCUGU: the self-cleavage turned out to be 0.122.

As to GGGGGCGACAGCAGCAGCGUUCACGUCGCGGCCCCUGUCAGAUUCUGGUGAAUCUGCGAAUUCUGCUGU, the self-cleavage was found to be 0.0463.

On to GGGGGCGACAGCAGGAGCGUUCACGUCGCGGCCCCUGUCAGAUUCUGGUGAAUCUGCGAAUUCUGCUGU, for which the self-cleavage came to 0.248.

In the case of GGGGGCGACAGCAGACGCGUUCACGUCGCGGCCCCUGUCAGAUUCUGGUGAAUCUGCGAAUUCUGCUGU, the self-cleavage is 0.0882.

For the variant GGGGGCGACAGCAGAGGCGUUCACGUCGCGGCCCCUGUCAGAUUCUGGUGAAUCUGCGAAUUCUGCUGU, the self-cleavage is 0.329.

In the case of GGGGGCGACAGCAGAUGCGUUCACGUCGCGGCCCCUGUCAGAUUCUGGUGAAUCUGCGAAUUCUGCUGU, the self-cleavage turned out to be 0.0326.

For GGGGGCAACAGCAGAAGCGUUCACGUCGCGGCCCCUGUCAGAUUCUGGUGAAUCUGCGAACUCUGCUGU, the self-cleavage was 0.232.

With GGGGGCAACAGCAGAAGCGUUCACGUCGCGGCCCCUGUCAGAUUCUGGUGAAUCUGCGAAGUCUGCUGU, the self-cleavage is 0.378.

As for GGGGGCGACAGCAGAAGCGUUCCCGUCGCGGCCCCUGUCAGAUUCUGGUGAAUCUGCGAAUUCUGCUGU, the self-cleavage amounted to 0.319.

Take GGGGGCAACAGCAGAAGCGUUCACGUCGCGGCCCCUGUCAGAUUCUGGCGAAUCUGCGAAUUCUGCUGU: the self-cleavage was determined as 0.601.

Take GGGGGCAACAGCAGAAGCGUUCACGUCGCGGCCCCUGUCAGAUUCUGGAGAAUCUGCGAAUUCUGCUGU: the self-cleavage stood at 0.601.

Take GGGGGCAACAGCAGAAGCGUUCACGUCGCGGCCCCUGUCAGAUUCUGGGGAAUCUGCGAAUUCUGCUGU: the self-cleavage is 0.409.

In the case of GGGGGCAACAGCAGAAGCGUUCACGUCGCGGCCCCUGUCAGAUUCUGGUGAAUCUGCGAAUCCUGCUGU, the self-cleavage worked out at 0.269.

With GGGGGCAACAGCAGAAGCGUUCACGUCGCGGCCCCUGUCAGAUUCUGGUGAAUCUGCGAAUACUGCUGU, the self-cleavage was 0.275.

Turning to GGGGGCAACAGCAGAAGCGUUCACGUCGCGGCCCCUGUCAGAUUCUGGUGAAUCUGCGAAUUCUGCCGU, the self-cleavage is 0.807.

Regarding GGGGGCGACAGCAGAAGCGUUCACGUCGCGGCCCCUGUCAGAUUCUGGUGAAUCUGCGAAUUCUGCUGU, the self-cleavage amounted to 0.497.

On to GGGGGCAACAGCAGAAGCGUUCACGUCGCGGCCCCUGUCAGAUUCUGGUGAAUCAGCGAAUUCUGCUGU, for which the self-cleavage came to 0.333.

For GGGGGCAACAGCAGAAGCGUUCACGUCGCGGCCCCUGUCAGAUUCUGGUGAAUCCGCGAAUUCUGCUGU, the self-cleavage is 0.208.

In the case of GGGGGCAACAGCAGAAGCGUUCACGUCGCGGCCCCUGUCAGAUUCUGGUGAAUCGGCGAAUUCUGCUGU, the self-cleavage came out at 0.194.

With GGGGGCAACAGCAGAAGCGUUCACGUCGCGGCCCCUGUCAGAUUCUGGUGAAUCUGCGAAUUCGGCUGU, the self-cleavage is 0.355.

In the case of GGGGGCAACAGCAGAAGCGUUCACGUCGCGGCCCCUGUCAGAUUCUGGUGAAUCUGCGAAUUCAGCUGU, the self-cleavage came to 0.359.

As for GGGGGCGACAGCAGAAGCGUUCACGUCGCGGCCCCUGUCGGAUUCUGGUGAAUCUGCGAAUUCUGCUGU, the self-cleavage was 0.376.

For GGGGGCGUCAGCAGAAGCGUUCACGUCGCGGCCCCUGUCAGAUUCUGGUGAAUCUGCGAAUUCUGCUGU, the self-cleavage was found to be 0.614.

Turning to GGGGGCGGCAGCAGAAGCGUUCACGUCGCGGCCCCUGUCAGAUUCUGGUGAAUCUGCGAAUUCUGCUGU, the self-cleavage was 0.346.

GGGGGCGCCAGCAGAAGCGUUCACGUCGCGGCCCCUGUCAGAUUCUGGUGAAUCUGCGAAUUCUGCUGU: the self-cleavage is 0.514.

For the variant GGGGGCAACAGCAGAAGCGUUCACGUCGCGGCCCCUGUCAGACUCUGGUGAAUCUGCGAAUUCUGCUGU, the self-cleavage worked out at 0.388.

GGGGGCAACAGCAGAAGCGUUCACGUCGCGGCCCCUGUCAGAUUCGGGUGAAUCUGCGAAUUCUGCUGU: the self-cleavage came out at 0.654.

In the case of GGGGGCAACAGCAGAAGCGUUCACGUCGCGGCCCCUGUCAGAUUCCGGUGAAUCUGCGAAUUCUGCUGU, the self-cleavage worked out at 0.587.

With GGGGGCAACAGCAGAAGCGUUCACGUCGCGGCCCCUGUCAGAUCCUGGUGAAUCUGCGAAUUCUGCUGU, the self-cleavage came to 0.432.

For the variant GGGGGCAACAGCAGAAGCGUUCACGUCGCGGCCCCUGUCAGAUGCUGGUGAAUCUGCGAAUUCUGCUGU, the self-cleavage is 0.305.
